Legend:
[1] = target: T1, His-tagged murine FAP (murine, UniProt P97321 26-761); experiment: Octet
T1 chain: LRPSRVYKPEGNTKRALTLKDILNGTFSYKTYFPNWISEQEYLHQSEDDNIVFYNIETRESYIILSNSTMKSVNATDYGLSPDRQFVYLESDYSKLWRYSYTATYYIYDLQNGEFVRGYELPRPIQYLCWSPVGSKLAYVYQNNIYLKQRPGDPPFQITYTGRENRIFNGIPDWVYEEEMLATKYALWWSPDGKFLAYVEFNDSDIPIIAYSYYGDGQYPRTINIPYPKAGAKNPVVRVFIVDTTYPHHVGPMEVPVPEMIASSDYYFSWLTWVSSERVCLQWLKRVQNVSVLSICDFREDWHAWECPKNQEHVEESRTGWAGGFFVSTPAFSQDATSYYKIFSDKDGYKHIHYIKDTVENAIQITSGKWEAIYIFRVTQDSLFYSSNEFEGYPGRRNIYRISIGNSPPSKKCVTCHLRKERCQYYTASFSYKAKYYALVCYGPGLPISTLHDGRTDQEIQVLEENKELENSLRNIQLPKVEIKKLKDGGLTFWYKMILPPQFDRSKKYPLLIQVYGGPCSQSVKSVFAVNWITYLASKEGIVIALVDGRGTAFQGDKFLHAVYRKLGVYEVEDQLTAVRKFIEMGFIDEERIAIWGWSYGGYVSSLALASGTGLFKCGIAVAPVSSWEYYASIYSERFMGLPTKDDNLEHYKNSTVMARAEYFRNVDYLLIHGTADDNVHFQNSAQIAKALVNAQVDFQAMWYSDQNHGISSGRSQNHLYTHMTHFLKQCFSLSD

[2] = target: T2, Cyno; experiment: Octet
T2 chain: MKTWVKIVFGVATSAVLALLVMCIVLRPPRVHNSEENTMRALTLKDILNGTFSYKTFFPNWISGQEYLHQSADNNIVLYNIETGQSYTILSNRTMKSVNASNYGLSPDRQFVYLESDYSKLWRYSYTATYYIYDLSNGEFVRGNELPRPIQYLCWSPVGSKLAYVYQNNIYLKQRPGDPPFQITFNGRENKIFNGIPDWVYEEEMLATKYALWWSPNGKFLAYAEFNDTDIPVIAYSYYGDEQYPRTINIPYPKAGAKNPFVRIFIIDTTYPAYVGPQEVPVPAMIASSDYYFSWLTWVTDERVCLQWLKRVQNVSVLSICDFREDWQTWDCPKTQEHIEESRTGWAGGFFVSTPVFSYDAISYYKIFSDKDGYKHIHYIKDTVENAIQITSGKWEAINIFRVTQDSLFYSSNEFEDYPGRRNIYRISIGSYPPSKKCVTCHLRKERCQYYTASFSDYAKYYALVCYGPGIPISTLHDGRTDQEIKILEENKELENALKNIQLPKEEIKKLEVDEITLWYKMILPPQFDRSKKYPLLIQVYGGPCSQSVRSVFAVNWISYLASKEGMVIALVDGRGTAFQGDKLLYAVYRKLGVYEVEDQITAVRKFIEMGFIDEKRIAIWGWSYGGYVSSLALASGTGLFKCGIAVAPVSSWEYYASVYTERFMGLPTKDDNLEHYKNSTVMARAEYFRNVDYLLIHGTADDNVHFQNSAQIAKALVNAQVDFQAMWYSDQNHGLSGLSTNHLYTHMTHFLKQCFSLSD

[3] = target: T3, His-tagged human FAP (human, UniProt Q12884 26-760); experiment: Octet
[4] = target: T4, Cyno FAP; experiment: Octet; apparent KD
T4 chain: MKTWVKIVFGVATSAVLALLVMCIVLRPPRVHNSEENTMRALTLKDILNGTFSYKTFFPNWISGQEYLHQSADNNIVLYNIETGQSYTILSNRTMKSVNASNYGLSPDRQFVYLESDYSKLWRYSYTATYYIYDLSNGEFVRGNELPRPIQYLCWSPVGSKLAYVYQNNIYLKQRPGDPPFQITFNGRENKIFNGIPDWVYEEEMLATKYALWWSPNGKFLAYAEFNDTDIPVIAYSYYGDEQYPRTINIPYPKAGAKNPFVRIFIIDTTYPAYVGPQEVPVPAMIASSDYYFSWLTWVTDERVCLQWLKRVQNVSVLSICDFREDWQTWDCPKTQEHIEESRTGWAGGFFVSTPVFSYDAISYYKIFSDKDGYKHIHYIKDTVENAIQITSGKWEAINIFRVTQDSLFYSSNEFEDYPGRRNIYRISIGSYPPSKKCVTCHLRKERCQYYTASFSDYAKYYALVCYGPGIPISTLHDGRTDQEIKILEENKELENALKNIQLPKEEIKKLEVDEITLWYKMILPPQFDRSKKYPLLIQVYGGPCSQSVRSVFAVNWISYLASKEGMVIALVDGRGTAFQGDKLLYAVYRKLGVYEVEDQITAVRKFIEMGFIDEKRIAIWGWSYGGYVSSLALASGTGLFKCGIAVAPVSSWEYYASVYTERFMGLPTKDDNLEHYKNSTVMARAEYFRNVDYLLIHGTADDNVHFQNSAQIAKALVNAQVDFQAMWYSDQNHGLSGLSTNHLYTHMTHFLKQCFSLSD

[5] = target: T3, His-tagged human FAP; experiment: Octet; apparent KD

Row | Binder | Kd [1] [nM] | Kd [2] [nM] | Kd [3] [nM] | Kd [4] [nM] | Kd [5] [nM]
1 | XENP24471 (1F10B5) (antibody, V domains shown) VH: EVQLLESGGGLVQPGGSLRLSCAASGFTFSSYGMSWVRQAPGKGLEWVSGISGSGSSTHYADSVKGRFTISRDNSKNTLYLQMNSLRAEDTAVYYCAKGTTGLSYFDYWGQGTLVTVSS VL: not shown | 4.52 | 6.93 | 9.13 | – | –
2 | XENP24466 (1F12B5) (antibody, V domains shown) VH: EVQLLESGGGLVQPGGSLRLSCAASGFTFSSYAMTWVRQAPGKGLEWVSTISSSGGTTYYADSVKGRFTISRDNSKNTLYLQMNSLRAEDTAVYYCAKYPSYYSVTGFDYWGQGTLVTVSS VL: not shown | – | < 0.001 | < 0.001 | – | –
3 | XENP24462 (1F4B5) (antibody, V domains shown) VH: EVQLLESGGGLVQPGGSLRLSCAASGFTFSRYAMTWVRQAPGKGLEWVSSISASGGSTYYADSVKGRFTISRDNSKNTLYLQMNSLRAEDTAVYYCAKTFSGYAHYDFDYWGQGTLVTVSS VL: not shown | 33 | 0.53 | 0.372 | – | –
4 | XENP23936 (3F2, central-scFv) (antibody) chain 1: not shown chain 2: not shown chain 3: EIVLTQSPGTLSLSPGERATLSCRASQSVTSSYLAWYQQKPGQAPRLLINVGSRRATGIPDRFSGSGSGTDFTLTISRLEPEDFAVYYCQQGIMLPPTFGQGTKVEIKRTVAAPSVFIFPPSDEQLKSGTASVVCLLNNFYPREAKVQWKVDNALQSGNSQESVTEQDSKDSTYSLSSTLTLSKADYEKHKVYACEVTHQGLSSPVTKSFNRGEC | – | – | – | 0.187 | 0.323
5 | XENP24011 (sibrotuzumab, central-scFv) (antibody) chain 1: QVQLVQSGAEVKKPGASVKVSCKTSRYTFTEYTIHWVRQAPGQRLEWIGGINPNNGIPNYNQKFKGRVTITVDTSASTAYMELSSLRSEDTAVYYCARRRIAYGYDEGHAMDYWGQGTLVTVSSASTKGPSVFPLAPSSKSTSGGTAALGCLVKDYFPEPVTVSWNSGALTSGVHTFPAVLQSSGLYSLSSVVTVPSSSLGTQTYICNVNHKPSDTKVDKKVEPKSCDKTHTCPPCPAPPVAGPSVFLFPPKPKDTLMISRTPEVTCVVVDVKHEDPEVKFNWYVDGVEVHNAKTKPREEEYNSTYRVVSVLTVLHQDWLNGKEYKCKVSNKALPAPIEKTISKAKGQPREPQVYTLPPSREEMTKNQVSLTCDVSGFYPSDIAVEWESDGQPENNYKTTPPVLDSDGSFFLYSKLTVDKSRWEQGDVFSCSVMHEALHNHYTQKSLSLSPGK chain 2: QVQLVQSGAEVKKPGASVKVSCKTSRYTFTEYTIHWVRQAPGQRLEWIGGINPNNGIPNYNQKFKGRVTITVDTSASTAYMELSSLRSEDTAVYYCARRRIAYGYDEGHAMDYWGQGTLVTVSSASTKGPSVFPLAPSSKSTSGGTAALGCLVKDYFPEPVTVSWNSGALTSGVHTFPAVLQSSGLYSLSSVVTVPSSSLGTQTYICNVNHKPSNTKVDKKVEPKSCGGGGSGGGGSEVQLVESGGGLVQPGGSLRLSCAASGFTFSTYAMNWVRQAPGKGLEWVGRIRSKYNNYATYYADSVKGRFTISRDDSKNTLYLQMNSLRAEDTAVYYCVRHGNFGDSYVSWFAYWGQGTLVTVSSGKPGSGKPGSGKPGSGKPGSQAVVTQEPSLTVSPGGTVTLTCGSSTGAVTTSNYANWVQQKPGKSPRGLIGGTNKRAPGVPARFSGSLLGGKAALTISGAQPEDEADYYCALWYSNHWVFGGGTKLTVLGGGGSGGGGSKTHTCPPCPAPPVAGPSVFLFPPKPKDTLMISRTPEVTCVVVDVKHEDPEVKFNWYVDGVEVHNAKTKPREEQYNSTYRVVSVLTVLHQDWLNGKEYKCKVSNKALPAPIEKTISKAKGQPREPQVYTLPPSREQMTKNQVKLTCLVKGFYPSDIAVEWESNGQPENNYKTTPPVLDSDGSFFLYSKLTVDKSRWQQGNVFSCSVMHEALHNHYTQKSLSLSPGK chain 3: not shown | – | – | – | 0.0149 | 0.0308
6 | XENP24460 (1A1B5) (antibody, V domains shown) VH: EVQLLESGGGLVQPGGSLRLSCAASGFTFSSYAMNWVRQAPGKGLEWVSTISSSGSRTYYADSVKGRFTISRDNSKNTLYLQMNSLRAEDTAVYYCAKGLVASAPFDYWGQGTLVTVSS VL: not shown | – | 0.458 | 0.515 | – | –
7 | XENP24461 (1A7B5) (antibody, V domains shown) VH: EVQLLESGGGLVQPGGSLRLSCAASGFTFSSYAMSWVRQAPGKGLEWVSGISGGGGSTYYADSVKGRFTISRDNSKNTLYLQMNSLRAEDTAVYYCAKIAHSRIGWHFDYWGQGTLVTVSS VL: not shown | – | 1.11 | 1.02 | – | –
8 | XENP24463 (1F11B5) (antibody, V domains shown) VH: EVQLLESGGGLVQPGGSLRLSCAASGFTFSSYAMNWVRQAPGKGLEWVSGISGGGSSTTYYADSVKGRFTISRDNSKNTLYLQMNSLRAEDTAVYYCAKPYYWVDSFFDYWGQGTLVTVSS VL: not shown | 45.5 | 0.0224 | < 0.001 | – | –
9 | XENP23534 (sibrotuzumab) (antibody, V domains shown) VH: QVQLVQSGAEVKKPGASVKVSCKTSRYTFTEYTIHWVRQAPGQRLEWIGGINPNNGIPNYNQKFKGRVTITVDTSASTAYMELSSLRSEDTAVYYCARRRIAYGYDEGHAMDYWGQGTLVTVSS VL: DIVMTQSPDSLAVSLGERATINCKSSQSLLYSRNQKNYLAWYQQKPGQPPKLLIFWASTRESGVPDRFSGSGFGTDFTLTISSLQAEDVAVYYCQQYFSYPLTFGQGTKVEIKR | – | < 0.001 | < 0.001 | – | –
10 | XENP23932 (29B11, central-scFv) (antibody) chain 1: EVQLLESGGGLVQPGGSLRLSCAASGFTFSSYAMSWVRQAPGKGLEWVSAIIGSGGITYYADSVKGRFTISRDNSKNTLYLQMNSLRAEDTAVYYCAKGWFGGFNYWGQGTLVTVSSASTKGPSVFPLAPSSKSTSGGTAALGCLVKDYFPEPVTVSWNSGALTSGVHTFPAVLQSSGLYSLSSVVTVPSSSLGTQTYICNVNHKPSDTKVDKKVEPKSCDKTHTCPPCPAPPVAGPSVFLFPPKPKDTLMISRTPEVTCVVVDVKHEDPEVKFNWYVDGVEVHNAKTKPREEEYNSTYRVVSVLTVLHQDWLNGKEYKCKVSNKALPAPIEKTISKAKGQPREPQVYTLPPSREEMTKNQVSLTCDVSGFYPSDIAVEWESDGQPENNYKTTPPVLDSDGSFFLYSKLTVDKSRWEQGDVFSCSVMHEALHNHYTQKSLSLSPGK chain 2: EVQLLESGGGLVQPGGSLRLSCAASGFTFSSYAMSWVRQAPGKGLEWVSAIIGSGGITYYADSVKGRFTISRDNSKNTLYLQMNSLRAEDTAVYYCAKGWFGGFNYWGQGTLVTVSSASTKGPSVFPLAPSSKSTSGGTAALGCLVKDYFPEPVTVSWNSGALTSGVHTFPAVLQSSGLYSLSSVVTVPSSSLGTQTYICNVNHKPSNTKVDKKVEPKSCGGGGSGGGGSEVQLVESGGGLVQPGGSLRLSCAASGFTFSTYAMNWVRQAPGKGLEWVGRIRSKYNNYATYYADSVKGRFTISRDDSKNTLYLQMNSLRAEDTAVYYCVRHGNFGDSYVSWFAYWGQGTLVTVSSGKPGSGKPGSGKPGSGKPGSQAVVTQEPSLTVSPGGTVTLTCGSSTGAVTTSNYANWVQQKPGKSPRGLIGGTNKRAPGVPARFSGSLLGGKAALTISGAQPEDEADYYCALWYSNHWVFGGGTKLTVLGGGGSGGGGSKTHTCPPCPAPPVAGPSVFLFPPKPKDTLMISRTPEVTCVVVDVKHEDPEVKFNWYVDGVEVHNAKTKPREEQYNSTYRVVSVLTVLHQDWLNGKEYKCKVSNKALPAPIEKTISKAKGQPREPQVYTLPPSREQMTKNQVKLTCLVKGFYPSDIAVEWESNGQPENNYKTTPPVLDSDGSFFLYSKLTVDKSRWQQGNVFSCSVMHEALHNHYTQKSLSLSPGK chain 3: EIVLTQSPGTLSLSPGERATLSCRASQSVTSSYLAWYQQKPGQAPRLLINVGSRRATGIPDRFSGSGSGTDFTLTISRLEPEDFAVYYCQQGIMLPPTFGQGTKVEIKRTVAAPSVFIFPPSDEQLKSGTASVVCLLNNFYPREAKVQWKVDNALQSGNSQESVTEQDSKDSTYSLSSTLTLSKADYEKHKVYACEVTHQGLSSPVTKSFNRGEC | – | – | – | 0.0229 | < 0.001
11 | XENP24448 (1C3A5) (antibody, V domains shown) VH: EVQLLESGGGLVQPGGSLRLSCAASGFTFSSYAMSWVRQAPGKGLEWVSAISGSGGGTRYADSVKGRFTISRDNSKNTLYLQMNSLRAEDTAVYYCAKHSSGFHWYFDYWGQGTLVTVSS VL: not shown | – | 5.01 | 4.54 | – | –
